Assay results as given in the supplement of paper PMC5998384.

How the values were obtained:
HeLa Kyoto [1] = assay: solubility change mitosis vs G1/S (difference of NP-40 vs SDS log2 ratios) (log2 ratio difference); higher = more soluble in mitosis
HeLa Kyoto [2] = assay: solubility in G1/S (NP-40 vs SDS abundance) (log2 ratio); higher = more soluble; conditions: cell cycle stage: G1/S
HeLa Kyoto [3] = assay: melting temperature (median over replicates), in situ; higher = more thermally stable
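For melting temperature (median over replicates), in situ in this document: HeLa Kyoto cells synchronized by double thymidine or nocodazole block, proteins quantified by TMT10plex mass spectrometry, three independent biological replicates.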
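For solubility change mitosis vs G1/S (difference of NP-40 vs SDS log2 ratios) in this document: synchronized HeLa Kyoto cells (double thymidine block for G1/S, nocodazole release for mitosis), protein amounts in NP-40 versus SDS lysates quantified by mass spectrometry, three biological replicates.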
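For solubility in G1/S (NP-40 vs SDS abundance) in this document: HeLa Kyoto cells arrested at G1/S by double thymidine block, proteins quantified by TMT10plex mass spectrometry in mild NP-40 versus SDS extracts, three biological replicates.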

Sequence of UBE2D3 (chain, as listed by the source): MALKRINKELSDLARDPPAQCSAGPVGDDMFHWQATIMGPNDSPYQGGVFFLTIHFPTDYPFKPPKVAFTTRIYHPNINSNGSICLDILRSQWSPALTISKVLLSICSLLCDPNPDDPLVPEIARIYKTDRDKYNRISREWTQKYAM

Substance	solubility change mitosis (log2) (HeLa Kyoto [1])	solubility in G1/S (log2) (HeLa Kyoto [2])	melting temperature (HeLa Kyoto [3]; cell cycle stage: G1/S) [°C]	melting temperature (HeLa Kyoto [3]; cell cycle stage: mitosis) [°C]
MNGEEEFFDAVTGFDSDNSSGEFSEANQKVTGMIDLDTSKNNRIGKTGERPSQENGIQKHRTSLPAPMFSRSDFSVWTILKKCVGLELSKITMPIAFNEPLSFLQRITEYMEHVYLIHRASCQPQPLERMQSVAAFAVSAVASQWERTGKPFNPLLGETYELIREDLGFRFISEQVSHHPPISAFHSEGLNHDFLFHGSIYPKLKFWGKSVEAEPRGTITLELLKHNEAYTWTNPTCCVHNVIIGKLWIEQYGTVEILNHRTGHKCVLHFKPCGLFGKELHKVEGHIQDKNKKKLFMIYGKWTECLWGIDPVSYESFKKQERRGDHLRKAKLDEDSGKADSDVADDVPVAQETVQVIPGSKLLWRINTRPPNSAQMYNFTSFTVSLNELETGMEKTLPPTDCRLRPDIRGMENGNMDLASQEKERLEEKQREARRERAKEEAEWQTRWFYPGNNPYTGTPDWLYAGDYFERNFSDCPDIY [OSBPL2]	-0.108	-0.0421	48.1	48.6
UBE2D3	0.0226	0.585	49.5	
MSAGGSARKSTGRSSYYYRLLRRPRLQRQRSRSRSRTRPARESPQERPGSRRSLPGSLSEKSPSMEPSAATPFRVTGFLSRRLKGSIKRTKSQPKLDRNHSFRHILPGFRSAAAAAADNERSHLMPRLKESRSHESLLSPSSAVEALDLSMEEEVVIKPVHSSILGQDYCFEVTTSSGSKCFSCRSAAERDKWMENLRRAVHPNKDNSRRVEHILKLWVIEAKDLPAKKKYLCELCLDDVLYARTTGKLKTDNVFWGEHFEFHNLPPLRTVTVHLYRETDKKKKKERNSYLGLVSLPAASVAGRQFVEKWYPVVTPNPKGGKGPGPMIRIKARYQTITILPMEMYKEFAEHITNHYLGLCAALEPILSAKTKEEMASALVHILQSTGKVKDFLTDLMMSEVDRCGDNEHLIFRENTLATKAIEEYLKLVGQKYLQDALGEFIKALYESDENCEVDPSKCSAADLPEHQGNLKMCCELAFCKIINSYCVFPRELKEVFASWRQECSSRGRPDISERLISASLFLRFLCPAIMSPSLFNLLQEYPDDRTARTLTLIAKVTQNLANFAKFGSKEEYMSFMNQFLEHEWTNMQRFLLEISNPETLSNTAGFEGYIDLGRELSSLHSLLWEAVSQLEQSIVSKLGPLPRILRDVHTALSTPGSGQLPGTNDLASTPGSGSSSISAGLQKMVIENDLSGLIDFTRLPSPTPENKDLFFVTRSSGVQPSPARSSSYSEANEPDLQMANGGKSLSMVDLQDARTLDGEAGSPAGPDVLPTDGQAAAAQLVAGWPARATPVNLAGLATVRRAGQTPTTPGTSEGAPGRPQLLAPLSFQNPVYQMAAGLPLSPRGLGDSGSEGHSSLSSHSNSEELAAAAKLGSFSTAAEELARRPGELARRQMSLTEKGGQPTVPRQNSAGPQRRIDQPPPPPPPPPPAPRGRTPPNLLSTLQYPRPSSGTLASASPDWVGPSTRLRQQSSSSKGDSPELKPRAVHKQGPSPVSPNALDRTAAWLLTMNAQLLEDEGLGPDPPHRDRLRSKDELSQAEKDLAVLQDKLRISTKKLEEYETLFKCQEETTQKLVLEYQARLEEGEERLRRQQEDKDIQMKGIISRLMSVEEELKKDHAEMQAAVDSKQKIIDAQEKRIASLDAANARLMSALTQLKERYSMQARNGISPTNPTKLQITENGEFRNSSNC [DAB2IP]	0.0598	0.117	49.5	51
MAAPWASLRLVAPMWNGRIRGIHRLGAAVAPEGNQKKKRTILQFLTNYFYDVEALRDYLLQREMYKVHEKNRSYTWLEKQHGPYGAGAFFILKQGGAVKFRDKEWIRPDKYGHFSQEFWNFCEVPVEAVDAGDCDINYEGLDNLLRLKELQSLSLQRCCHVDDWCLSRLYPLADSLQELSLAGCPRISERGLACLHHLQNLRRLDISDLPAVSNPGLTQILVEEMLPNCEVVGVDWAEGLKSGPEEQPRDTASPVPA [ATP5SL]	-0.0178	0.174	52.9	52
MQTSSSRSVHLSEWQKNYFAITSGICTGPKADAYRAQILRIQYAWANSEISQVCATKLFKKYAEKYSAIIDSDNVESGLNNYAENILTLAGSQQTDSDKWQSGLSINNVFKMSSVQKMMQAGKKFKDSLLEPALASVVIHKEATVFDLPKFSVCGSSQESDSLPNSAHDRDRTQDFPESNRLKLLQNAQPPMVTNTARTCPTFSAPVGESATAKFHVTPLFGNVKKENHSSAKENIGLNVFLSNQSCFPAACENPQRKSFYGSGTIDALSNPILNKACSKTEDNGPKEDSSLPTFKTAKEQLWVDQQKKYHQPQRASGSSYGGVKKSLGASRSRGILGKFVPPIPKQDGGEQNGGMQCKPYGAGPTEPAHPVDERLKNLEPKMIELIMNEIMDHGPPVNWEDIAGVEFAKATIKEIVVWPMLRPDIFTGLRGPPKGILLFGPPGTGKTLIGKCIASQSGATFFSISASSLTSKWVGEGEKMVRALFAVARCQQPAVIFIDEIDSLLSQRGDGEHESSRRIKTEFLVQLDGATTSSEDRILVVGATNRPQEIDEAARRRLVKRLYIPLPEASARKQIVINLMSKEQCCLSEEEIEQIVQQSDAFSGADMTQLCREASLGPIRSLQTADIATITPDQVRPIAYIDFENAFRTVRPSVSPKDLELYENWNKTFGCGK [FIGNL1]	-0.219	-0.0197		48.6
MAPRGRKRKAEAAVVAVAEKREKLANGGEGMEEATVVIEHCTSURVYGRNAAALSQALRLEAPELPVKVNPTKPRRGSFEVTLLRPDGSSAELWTGIKKGPPRKLKFPEPQEVVEELKKYLS [SELH]	0.17	-0.0665		52.2
MNSVRAANRRPRRVSRPRPVQQQQQQPPQQPPPQPPQQQPPQQQPPPPPQQQQQQQPPPPPPPPPPLPQERNNVGERDDDVPADMVAEESGPGAQNSPYQLRRKTLLPKRTACPTKNSMEGASTSTTENFGHRAKRARVSGKSQDLSAAPAEQYLQEKLPDEVVLKIFSYLLEQDLCRAACVCKRFSELANDPILWKRLYMEVFEYTRPMMHPEPGKFYQINPEEYEHPNPWKESFQQLYKGAHVKPGFAEHFYSNPARYKGRENMLYYDTIEDALGGVQEAHFDGLIFVHSGIYTDEWIYIESPITMIGAAPGKVADKVIIENTRDSTFVFMEGSEDAYVGYMTIRFNPDDKSAQHHNAHHCLEITVNCSPIIDHCIIRSTCTVGSAVCVSGQGACPTIKHCNISDCENVGLYITDHAQGIYEDNEISNNALAGIWVKNHGNPIIRRNHIHHGRDVGVFTFDHGMGYFESCNIHRNRIAGFEVKAYANPTVVRCEIHHGQTGGIYVHEKGRGQFIENKIYANNFAGVWITSNSDPTIRGNSIFNGNQGGVYIFGDGRGLIEGNDIYGNALAGIQIRTNSCPIVRHNKIHDGQHGGIYVHEKGQGVIEENEVYSNTLAGVWVTTGSTPVLRRNRIHSGKQVGVYFYDNGHGVLEDNDIYNHMYSGVQIRTGSNPKIRRNKIWGGQNGGILVYNSGLGCIEDNEIFDNAMAGVWIKTDSNPTLRRNKIHDGRDGGICIFNGGRGLLEENDIFRNAQAGVLISTNSHPILRKNRIFDGFAAGIEITNHATATLEGNQIFNNRFGGLFLASGVNVTMKDNKIMNNQDAIEKAVSRGQCLYKISSYTSYPMHDFYRCHTCNTTDRNAICVNCIKKCHQGHDVEFIRHDRFFCDCGAGTLSNPCTLAGEPTHDTDTLYDSAPPIESNTLQHN [FBXO11]	0.764	-1.25		52.6
MVGPAPRRRLRPLAALALVLALAPGLPTARAGQTPRPAERGPPVRLFTEEELARYGGEEEDQPIYLAVKGVVFDVTSGKEFYGRGAPYNALTGKDSTRGVAKMSLDPADLTHDTTGLTAKELEALDEVFTKVYKAKYPIVGYTARRILNEDGSPNLDFKPEDQPHFDIKDEF [NENF]	-0.0192	0.423	55.3	52.4
QSER1	-0.127	-0.136	46.5	48.5
GTF2H1	0.114	-0.0948	50.2	49.1
MLPGLRRLLQAPASACLLLMLLALPLAAPSCPMLCTCYSSPPTVSCQANNFSSVPLSLPPSTQRLFLQNNLIRTLRPGTFGSNLLTLWLFSNNLSTIYPGTFRHLQALEELDLGDNRHLRSLEPDTFQGLERLQSLHLYRCQLSSLPGNIFRGLVSLQYLYLQENSLLHLQDDLFADLANLSHLFLHGNRLRLLTEHVFRGLGSLDRLLLHGNRLQGVHRAAFRGLSRLTILYLFNNSLASLPGEALADLPSLEFLRLNANPWACDCRARPLWAWFQRARVSSSDVTCATPPERQGRDLRALREADFQACPPAAPTRPGSRARGNSSSNHLYGVAEAGAPPADPSTLYRDLPAEDSRGRQGGDAPTEDDYWGGYGGEDQRGEQMCPGAACQAPPDSRGPALSAGLPSPLLCLLLLVPHHL [RTN4RL2]	-0.00838	0.0566	54	53.7
MKAVKSERERGSRRRHRDGDVVLPAGVVVKQERLSPEVAPPAHRRPDHSGGSPSPPTSEPARSGHRGNRARGVSRSPPKKKNKASGRRSKSPRSKRNRSPHHSTVKVKQEREDHPRRGREDRQHREPSEQEHRRARNSDRDRHRGHSHQRRTSNERPGSGQGQGRDRDTQNLQAQEEEREFYNARRREHRQRNDVGGGGSESQELVPRPGGNNKEKEVPAKEKPSFELSGALLEDTNTFRGVVIKYSEPPEARIPKKRWRLYPFKNDEVLPVMYIHRQSAYLLGRHRRIADIPIDHPSCSKQHAVFQYRLVEYTRADGTVGRRVKPYIIDLGSGNGTFLNNKRIEPQRYYELKEKDVLKFGFSSREYVLLHESSDTSEIDRKDDEDEEEEEEVSDS [SNIP1]	0.493	-0.985		49.8
MATLSFVFLLLGAVSWPPASASGQEFWPGQSAADILSGAASRRRYLLYDVNPPEGFNLRRDVYIRIASLLKTLLKTEEWVLVLPPWGRLYHWQSPDIHQVRIPWSEFFDLPSLNKNIPVIEYEQFIAESGGPFIDQVYVLQSYAEGWKEGTWEEKVDERPCIDQLLYSQDKHEYYRGWFWGYEETRGLNVSCLSVQGSASIVAPLLLRNTSARSVMLDRAENLLHDHYGGKEYWDTRRSMVFARHLREVGDEFRSRHLNSTDDADRIPFQEDWMKMKVKLGSALGGPYLGVHLRRKDFIWGHRQDVPSLEGAVRKIRSLMKTHRLDKVFVATDAVRKEYEELKKLLPEMVRFEPTWEELELYKDGGVAIIDQWICAHARFFIGTSVSTFSFRIHEEREILGLDPKTTYNRFCGDQEKACEQPTHWKITY [POFUT2]	-0.151	0.154		53.8
MRRYLRVVVLCVACGFCSLLYAFSQLAVSLEEGTGGGGGKPQAAVASWLAGGGRGAVRGAGVAGPAAHPGVSDRCKDFSLCYWNPYWMLPSDVCGMNCFWEAAFRYSLKIQPVEKMHLAVVACGERLEETMTMLKSAIIFSIKPLQFHIFAEDQLHHSFKGRLDNWSFLQTFNYTLYPITFPSENAAEWKKLFKPCASQRLFLPLILKEVDSLLYVDTDILFLRPVDDIWSLLKKFNSTQIAAMAPEHEEPRIGWYNRFARHPYYGKTGVNSGVMLMNMTRMRRKYFKNDMTTVRLQWGDILMPLLKKYKLNITWGDQDLLNIVFFHNPESLFVFPCQWNYRPDHCIYGSNCQEAEEGGIFILHGNRGVYHDDKQPAFRAVYEALRNCSFEDDNIRSLLKPLELELQKTVHTYCGKIYKIFIKQLAKSVRDRYARSPKEK [GXYLT1]	0.0753	0.171	53.9	
